In article PMC3075868:

What was measured:
[1] = molecular target: HIV-1 NL4-3 CA N21C/A22C/W184A/M185A (disulfide-crosslinked pentamer) (HIV-1 NL4-3); test: crystal structure
[2] = molecular target: HIV-1 NL4-3 CA P17C/R18L/T19C/W184A/M185A (disulfide-crosslinked pentamer) (HIV-1 NL4-3); test: crystal structure

Row | Substance | stoichiometry N [1] | stoichiometry N [2]
1 | HIV-1 NL4-3 CA N21C/A22C/W184A/M185A (disulfide-crosslinked pentamer) (natural protein) | 5 | 
2 | HIV-1 NL4-3 CA P17C/R18L/T19C/W184A/M185A (disulfide-crosslinked pentamer) (natural protein) |  | 5
